Data: the supplement of paper PMC10567573

B1: PPEF2 (parent)
chain: AFKAAALIQRWYRRYVARLEMRRR

Variants of: B1
Assay: protein stability index of a GFP-peptide fusion (GPS, HEK-293T) (PSI 1-6); higher = more stable
Settings: c terminus: a fixed tail appended
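Also: lentivirally expressed fusions sorted by FACS into six bins by GFP to DsRed ratio, PSI derived from sequencing read proportions per bin multiplied by bin number.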

**Q.** For AFKAAALIQRDYRRYVARLEMRRR, which protein stability index is on record?
**A.** 2.79

**Q.** Which protein stability index does the source give for AFKAAALIQRPYRRYVARLEMRRR here?
**A.** 2.62

**Q.** Which protein stability index does the source give for AFKAAALIQRKYRRYVARLEMRRR here?
**A.** 5.21

**Q.** Which protein stability index does the source give for AFKAAALIQRGYRRYVARLEMRRR here?
**A.** 2.55

**Q.** Which protein stability index does the source give for AFKAAALIQRFYRRYVARLEMRRR here?
**A.** 3.99

**Q.** Which protein stability index does the source give for AFKAAALIQRLYRRYVARLEMRRR here?
**A.** 3.79

**Q.** Which protein stability index does the source give for AFKAAALIQRHYRRYVARLEMRRR here?
**A.** 2.28

**Q.** With AFKAAALIQRYYRRYVARLEMRRR as the variant, how does the protein stability index read?
**A.** 3.91

**Q.** With AFKAAALIQRNYRRYVARLEMRRR as the variant, how does the protein stability index read?
**A.** 4.17

**Q.** Which protein stability index does the source give for AFKAAALIQRQYRRYVARLEMRRR here?
**A.** 2.57

**Q.** For AFKAAALIQRSYRRYVARLEMRRR, which protein stability index is on record?
**A.** 4.12

**Q.** For AFKAAALIQRWKRRYVARLEMRRR, which protein stability index is on record?
**A.** 1.78

**Q.** For AFKAAALIQRWGRRYVARLEMRRR, which protein stability index is on record?
**A.** 1.49

**Q.** For AFKAAALIQRWHRRYVARLEMRRR, which protein stability index is on record?
**A.** 2.29

**Q.** Which protein stability index does the source give for AFKAAALIQRWMRRYVARLEMRRR here?
**A.** 2.95

**Q.** Which protein stability index does the source give for AFKAAALIQRWCRRYVARLEMRRR here?
**A.** 2.14

**Q.** With AFKAAALIQRWTRRYVARLEMRRR as the variant, how does the protein stability index read?
**A.** 2.17

**Q.** For AFKAAALIQRWRRRYVARLEMRRR, which protein stability index is on record?
**A.** 1.15

**Q.** Which protein stability index does the source give for AFKAAALIQRWERRYVARLEMRRR here?
**A.** 3.14

**Q.** For AFKAAALIQRWIRRYVARLEMRRR, which protein stability index is on record?
**A.** 2.53

**Q.** With AFKAAALIQRWPRRYVARLEMRRR as the variant, how does the protein stability index read?
**A.** 2.44

**Q.** With AFKAAALIQRWFRRYVARLEMRRR as the variant, how does the protein stability index read?
**A.** 3.17

**Q.** With AFKAAALIQRWVRRYVARLEMRRR as the variant, how does the protein stability index read?
**A.** 2.07

**Q.** With AFKAAALIQRWARRYVARLEMRRR as the variant, how does the protein stability index read?
**A.** 2.35

**Q.** With AFKAAALIQRWNRRYVARLEMRRR as the variant, how does the protein stability index read?
**A.** 1.62

**Q.** With AFKAAALTQRWYRRYVARLEMRRR as the variant, how does the protein stability index read?
**A.** 2.37

**Q.** For AFKAAALRQRWYRRYVARLEMRRR, which protein stability index is on record?
**A.** 3.09

**Q.** With AFKAAALLQRWYRRYVARLEMRRR as the variant, how does the protein stability index read?
**A.** 3.02

**Q.** For AFKAAALYQRWYRRYVARLEMRRR, which protein stability index is on record?
**A.** 2.19

**Q.** With AFKAAALDQRWYRRYVARLEMRRR as the variant, how does the protein stability index read?
**A.** 3.02

**Q.** Which protein stability index does the source give for AFKAAALKQRWYRRYVARLEMRRR here?
**A.** 3.15

**Q.** For AFKAAALSQRWYRRYVARLEMRRR, which protein stability index is on record?
**A.** 4.29

**Q.** Which protein stability index does the source give for AFKAAALCQRWYRRYVARLEMRRR here?
**A.** 3.52

**Q.** Which protein stability index does the source give for AFKAAALNQRWYRRYVARLEMRRR here?
**A.** 2.98

**Q.** For AFKAAALMQRWYRRYVARLEMRRR, which protein stability index is on record?
**A.** 1.94

**Q.** Which protein stability index does the source give for AFKAAALFQRWYRRYVARLEMRRR here?
**A.** 2.29

**Q.** For AFKAAALAQRWYRRYVARLEMRRR, which protein stability index is on record?
**A.** 2.38

**Q.** Which protein stability index does the source give for AFKAAALHQRWYRRYVARLEMRRR here?
**A.** 2.16

**Q.** Which protein stability index does the source give for AFKAAALVQRWYRRYVARLEMRRR here?
**A.** 3.41

**Q.** For AFKCAALIQRWYRRYVARLEMRRR, which protein stability index is on record?
**A.** 3.15

**Q.** Which protein stability index does the source give for AFKKAALIQRWYRRYVARLEMRRR here?
**A.** 3.27

**Q.** Which protein stability index does the source give for AFKVAALIQRWYRRYVARLEMRRR here?
**A.** 2.55

**Q.** Which protein stability index does the source give for AFKRAALIQRWYRRYVARLEMRRR here?
**A.** 3.46

**Q.** With AFKFAALIQRWYRRYVARLEMRRR as the variant, how does the protein stability index read?
**A.** 3.17

**Q.** With AFKGAALIQRWYRRYVARLEMRRR as the variant, how does the protein stability index read?
**A.** 3.69

**Q.** For AFKPAALIQRWYRRYVARLEMRRR, which protein stability index is on record?
**A.** 2.38

**Q.** Which protein stability index does the source give for AFKSAALIQRWYRRYVARLEMRRR here?
**A.** 2.13

**Q.** Which protein stability index does the source give for AFKMAALIQRWYRRYVARLEMRRR here?
**A.** 2.25

**Q.** For AFKAAQLIQRWYRRYVARLEMRRR, which protein stability index is on record?
**A.** 3.88

**Q.** For AFKAACLIQRWYRRYVARLEMRRR, which protein stability index is on record?
**A.** 4.25

**Q.** Which protein stability index does the source give for AFKAALLIQRWYRRYVARLEMRRR here?
**A.** 2.5

**Q.** With AFKAAELIQRWYRRYVARLEMRRR as the variant, how does the protein stability index read?
**A.** 3.81

**Q.** With AFKAAPLIQRWYRRYVARLEMRRR as the variant, how does the protein stability index read?
**A.** 1.95

**Q.** For AFKAAVLIQRWYRRYVARLEMRRR, which protein stability index is on record?
**A.** 4.97

**Q.** With AFKAADLIQRWYRRYVARLEMRRR as the variant, how does the protein stability index read?
**A.** 3.14

**Q.** Which protein stability index does the source give for AFKAATLIQRWYRRYVARLEMRRR here?
**A.** 4.02

**Q.** With AFKAAFLIQRWYRRYVARLEMRRR as the variant, how does the protein stability index read?
**A.** 2.77

**Q.** For AFKAAYLIQRWYRRYVARLEMRRR, which protein stability index is on record?
**A.** 1.75

**Q.** With AFKAAKLIQRWYRRYVARLEMRRR as the variant, how does the protein stability index read?
**A.** 2.83

**Q.** Which protein stability index does the source give for AFKAAALIQRWYRRYHARLEMRRR here?
**A.** 3.66

**Q.** With AFKAAALIQRWYRRYWARLEMRRR as the variant, how does the protein stability index read?
**A.** 2.32

**Q.** With AFKAAALIQRWYRRYPARLEMRRR as the variant, how does the protein stability index read?
**A.** 1.92

**Q.** For AFKAAALIQRWYRRYFARLEMRRR, which protein stability index is on record?
**A.** 3.25

**Q.** With AFKAAALIQRWYRRYSARLEMRRR as the variant, how does the protein stability index read?
**A.** 4.23

**Q.** Which protein stability index does the source give for AFKAAALIQRWYRRYKARLEMRRR here?
**A.** 4.73

**Q.** For AFKAAALIQRWYRRYEARLEMRRR, which protein stability index is on record?
**A.** 2.13

**Q.** With AFKAAALIQRWYRRYAARLEMRRR as the variant, how does the protein stability index read?
**A.** 3.94

**Q.** For AFKAAALIQRWYRRYLARLEMRRR, which protein stability index is on record?
**A.** 4

**Q.** Which protein stability index does the source give for AFKAAALIQRWYRRYRARLEMRRR here?
**A.** 5.4

**Q.** With AFKAAALIQRWYRRYCARLEMRRR as the variant, how does the protein stability index read?
**A.** 3.05

**Q.** Which protein stability index does the source give for AFKAAALIQRWYRRYTARLEMRRR here?
**A.** 3.53

**Q.** For AFKAAALIQRWYRRYNARLEMRRR, which protein stability index is on record?
**A.** 3.02

**Q.** With AFKAAALIQRWYRRYIARLEMRRR as the variant, how does the protein stability index read?
**A.** 3.94

**Q.** With AFKAAALIQRWYRRYYARLEMRRR as the variant, how does the protein stability index read?
**A.** 2.96

**Q.** For AFKAAALIQRWYRRYMARLEMRRR, which protein stability index is on record?
**A.** 4.45

**Q.** Which protein stability index does the source give for AFKAAALIQRWYRREVARLEMRRR here?
**A.** 3.89

**Q.** For AFKAAALIQRWYRRCVARLEMRRR, which protein stability index is on record?
**A.** 4.6

**Q.** With AFKAAALIQRWYRRDVARLEMRRR as the variant, how does the protein stability index read?
**A.** 1.87

**Q.** For AFKAAALIQRWYRRWVARLEMRRR, which protein stability index is on record?
**A.** 3.61

**Q.** For AFKAAALIQRWYRRGVARLEMRRR, which protein stability index is on record?
**A.** 1.93

**Q.** Which protein stability index does the source give for AFKAAALIQRWYRRMVARLEMRRR here?
**A.** 5.14

**Q.** With AFKAAALIQRWYRRAVARLEMRRR as the variant, how does the protein stability index read?
**A.** 4.61

**Q.** With AFKAAALIQRWYRRPVARLEMRRR as the variant, how does the protein stability index read?
**A.** 1.89

**Q.** Which protein stability index does the source give for AFKAAALIQRWYRRHVARLEMRRR here?
**A.** 4.56

**Q.** With AFKAAALIQRWYRRRVARLEMRRR as the variant, how does the protein stability index read?
**A.** 4.11

**Q.** For AFKAAALIQRWYRRQVARLEMRRR, which protein stability index is on record?
**A.** 4.44

**Q.** With AFKAAALIQRWYRRTVARLEMRRR as the variant, how does the protein stability index read?
**A.** 4.46

**Q.** With AFKAAALIQRWYRRNVARLEMRRR as the variant, how does the protein stability index read?
**A.** 5.1

**Q.** For AFKAAALIQRWYRRLVARLEMRRR, which protein stability index is on record?
**A.** 3.82

**Q.** With AFKAAALIQRWYRRVVARLEMRRR as the variant, how does the protein stability index read?
**A.** 4.4

**Q.** Which protein stability index does the source give for AFKAAALIQRWYRRFVARLEMRRR here?
**A.** 3.39

**Q.** With AFKAAALIQRWYRRYVERLEMRRR as the variant, how does the protein stability index read?
**A.** 3.13

**Q.** For AFKAAALIQRWYRRYVCRLEMRRR, which protein stability index is on record?
**A.** 2.53

**Q.** With AFKAAALIQRWYRRYVDRLEMRRR as the variant, how does the protein stability index read?
**A.** 2.33
